The record followed here is patent US20260049134A1 (UNIVERSITY OF FLORIDA RESEARCH FOUNDATION, published 2026).

Common to all, as to test: ELISA on coated protein
Background: In an ELISA, binding on a coated surface is turned into a signal by an enzyme label.

One experiment deals with T1, HHLA2.
T1 construct: also called HHLA2-Fc (R&D Systems); B7-H7; not shown: Fc part and any linker
T1 chain: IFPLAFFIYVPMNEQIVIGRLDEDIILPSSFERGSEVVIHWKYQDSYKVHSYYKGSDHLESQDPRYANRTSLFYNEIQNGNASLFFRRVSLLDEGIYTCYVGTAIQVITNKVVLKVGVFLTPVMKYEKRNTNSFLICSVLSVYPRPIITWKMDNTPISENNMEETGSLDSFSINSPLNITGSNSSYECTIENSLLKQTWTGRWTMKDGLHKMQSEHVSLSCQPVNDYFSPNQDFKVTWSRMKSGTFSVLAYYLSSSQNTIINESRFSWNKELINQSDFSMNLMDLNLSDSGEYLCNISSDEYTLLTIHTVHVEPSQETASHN
As to the method:
(§1) Recombinant purified ECDs (50-150 ng) of each putative target protein were coated, incubated with 150 ng of the indicated primary antibody, and binding was detected using a peroxidase-conjugated anti-human Fab secondary antibody. Heatmap represents averages of technical triplicates. (8B) Target validation via siRNA knockdown. H929 cells were transfected with siRNA pools targeting the putative antibody targets ICAM1, CADM1, and PTPRG. Cells were then subjected to cognate IgG binding analysis via flow cytometry. (NT, non-targeting siRNA).
(§2) ELISA ELISA was conducted as described previously. Briefly, 50-150 ng of antigen was coated overnight in half-area 96-well plates at 4° C., blocked with 3% BSA at 37° C. for 1 h, and 150 ng of chimeric rabbit/human IgG1 was added, incubating for 2 h at 37° C. […] After incubating at 37° C. for 15 min-1 h (depending on intensity of controls), data were acquired using a SpectraMax M5 plate reader (Molecular Devices).

A further experiment has as its target T2, SELL.
T2 construct: also called SELL-Fc-His (R&D Systems); L-Selectin
T2 chain: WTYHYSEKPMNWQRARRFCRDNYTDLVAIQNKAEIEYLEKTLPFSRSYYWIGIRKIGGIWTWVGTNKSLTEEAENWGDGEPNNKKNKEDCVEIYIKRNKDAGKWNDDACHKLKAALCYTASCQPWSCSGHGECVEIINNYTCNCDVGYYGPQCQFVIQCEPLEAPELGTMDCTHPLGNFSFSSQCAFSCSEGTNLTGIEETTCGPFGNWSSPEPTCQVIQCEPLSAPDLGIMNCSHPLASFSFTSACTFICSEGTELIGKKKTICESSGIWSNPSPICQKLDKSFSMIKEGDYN
As to the method: as §1, §2

Another experiment addresses T3, ICAM1-Fc (R&D Systems) (human, UniProt P05362 28-480).
T3 construct: Bought; also called ICAM-1/CD54; not shown: Fc of the bought fusion protein
As to the method:
as §1, §2

A further experiment has as its target T4, PTP4A3.
T4 construct: also called His-PTP4A3 (R&D Systems)
The method, then: as §1, §2

For another experiment, the target named is T5, ANXA1.
T5 construct: also called ANXA1-His (R&D Systems); not shown: His tag
T5 chain: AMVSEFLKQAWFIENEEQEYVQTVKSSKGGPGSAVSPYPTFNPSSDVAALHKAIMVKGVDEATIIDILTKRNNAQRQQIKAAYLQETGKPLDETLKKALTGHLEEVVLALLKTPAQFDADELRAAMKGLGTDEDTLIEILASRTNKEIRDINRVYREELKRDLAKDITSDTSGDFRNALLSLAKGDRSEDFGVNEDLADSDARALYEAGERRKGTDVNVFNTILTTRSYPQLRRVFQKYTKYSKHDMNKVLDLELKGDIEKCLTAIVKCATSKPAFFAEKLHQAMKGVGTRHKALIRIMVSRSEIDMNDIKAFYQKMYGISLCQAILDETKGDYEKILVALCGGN
As to the method:
as §1, §2

The target in the next experiment is T6, IL13RA1.
T6 construct: also called IL13RA1-Fc-His (R&D Systems)
T6 chain: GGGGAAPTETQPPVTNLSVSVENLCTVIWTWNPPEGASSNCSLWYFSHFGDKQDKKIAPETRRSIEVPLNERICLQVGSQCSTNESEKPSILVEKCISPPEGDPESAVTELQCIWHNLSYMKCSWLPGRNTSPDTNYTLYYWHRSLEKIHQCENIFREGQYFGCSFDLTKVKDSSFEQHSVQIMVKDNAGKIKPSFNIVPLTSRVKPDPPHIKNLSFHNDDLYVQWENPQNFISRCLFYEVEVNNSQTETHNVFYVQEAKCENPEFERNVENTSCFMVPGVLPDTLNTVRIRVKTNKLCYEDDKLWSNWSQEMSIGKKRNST
As to the method: as §1, §2

For another experiment, the target named is T7, SLAMF7.
T7 construct: also called SLAMF7-StrepTag; not shown: StrepTag and any linker
T7 chain: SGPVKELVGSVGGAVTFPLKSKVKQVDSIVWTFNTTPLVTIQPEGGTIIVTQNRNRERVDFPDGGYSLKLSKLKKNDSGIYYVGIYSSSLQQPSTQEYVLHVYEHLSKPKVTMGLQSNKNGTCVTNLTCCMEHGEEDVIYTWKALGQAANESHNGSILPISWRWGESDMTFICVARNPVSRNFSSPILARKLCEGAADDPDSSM
As to the method: as §1, §2

T4 sequence (chain, as listed by the source limits assumed): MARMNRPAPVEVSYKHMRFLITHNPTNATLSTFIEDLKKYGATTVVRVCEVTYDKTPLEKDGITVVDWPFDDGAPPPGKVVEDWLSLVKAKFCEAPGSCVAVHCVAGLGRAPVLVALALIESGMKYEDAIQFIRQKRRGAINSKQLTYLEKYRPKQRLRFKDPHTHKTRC
T3 sequence (P05362 28-480): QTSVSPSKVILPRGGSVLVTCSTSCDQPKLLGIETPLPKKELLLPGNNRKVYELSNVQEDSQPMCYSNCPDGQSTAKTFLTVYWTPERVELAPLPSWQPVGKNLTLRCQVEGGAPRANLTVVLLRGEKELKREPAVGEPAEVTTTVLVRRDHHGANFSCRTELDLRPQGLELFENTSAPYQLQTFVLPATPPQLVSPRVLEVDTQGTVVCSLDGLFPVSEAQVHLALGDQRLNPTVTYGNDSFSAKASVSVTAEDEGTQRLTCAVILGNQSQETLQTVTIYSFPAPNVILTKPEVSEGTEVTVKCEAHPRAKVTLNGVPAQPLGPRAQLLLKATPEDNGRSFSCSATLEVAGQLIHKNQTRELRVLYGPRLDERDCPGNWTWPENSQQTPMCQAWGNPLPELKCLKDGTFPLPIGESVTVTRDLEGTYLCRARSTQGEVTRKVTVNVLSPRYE

B1: HW-97 chimeric rabbit-human IgG1 LA/LA/PG (antibody, V domains shown)
VH: QKQLVESGGRLVTPGTPLTLTCTVTGIDLSSHGMSWVRQAPGKGLEWIGVIYPSGSTWYASWARGRFTISKTSTTVDLKMTSLTTEDTATHFCARGDVGGADNNIWGPGTLVTVSS
VL: SFVLTQPASVQVDLGQTVSLTCTAETLSRSYASWYQQKPGQAPVLLIYRDTSRPSGVPDRFSGSSSGNTATLTISGAQAGDEADYYCATSDGSGSSYQYVFGGGTQLTVTG
notes: Fc-silenced (L234A/L235A/P329G) IgG1, lambda; Alexa Fluor 647-labeled in single-step flow cytometry; Prototype of cluster C-97
Consider B1, for which the binding result with HHLA2, with SELL, with ICAM1-Fc (R&D Systems), with PTP4A3, with ANXA1 and with IL13RA1 was “no binding (tested: 150 ng IgG1 per well)” each time. Moreover, the binding result with SLAMF7 is on record as “no binding (tested: 150 ng IgG1 per well)”.

B2: HW-101 chimeric rabbit-human IgG1 LA/LA/PG (antibody, V domains shown)
VH: QEQLVESGGRLVTPGTPLTLTCKASGFSLGKYDMSWVRQAPGKGLEWIGTIYAGSGSTWYASWAKGRFTISKTSTTVDLKMTSLTTEDTATYFCARDFLGVNSIWGPGTLVTISS
VL: SFVLTQPASVQVNLGQTVSLTCTADTLSRSYASWYQQKPDQAPVLLIHRDTSRPSGVPDRFSGSNSGNTATLTISGAQAGDEADYYCATSDGSGSNFHFVFGGGTQLTVTG
notes: Fc-silenced (L234A/L235A/P329G) IgG1, lambda; Alexa Fluor 647-labeled in single-step flow cytometry; Cluster C-97
In the case of B2, the binding result with HHLA2, with SELL, with ICAM1-Fc (R&D Systems), with PTP4A3, with ANXA1 and in the experiment with IL13RA1 was “no binding (tested: 150 ng IgG1 per well)” in each case. In addition, the binding result in the experiment with SLAMF7 is “no binding (tested: 150 ng IgG1 per well)”.

B3: TH9-0022 (antibody, human IgG1, kappa, L234A L235A, V domains shown)
VH: QSLEESGGRLVTPGTPLTLTCTVSGFSLSSYAMNWVRQAPGKGLEWIGIINSYGSTYYASWAKGRFTISKTSTTVDLKITSPTTEDTATYFCARVTYDSYGYGYAPYGMDLWGPGTLVTVSS
VL: LVMTQTPSSTSNAVGGTVTIKCQASQSIGNVLAWYQQKPGQPPKLLIYAASTLASGVPSRVGGSRSGTEYTLTISGVQREDAATYYCLGSDSDSDIAFGGGTELEILR
notes: also called TH9-022; negative control IgG1
For the molecule B3, the binding result in the experiment with HHLA2, in the experiment with SELL, with ICAM1-Fc (R&D Systems), with PTP4A3, with ANXA1 and with IL13RA1 was “no binding (tested: 150 ng IgG1 per well)” throughout. The binding result in the experiment with SLAMF7 is reported as “no binding (tested: 150 ng IgG1 per well)”.
